Patent CN117069831A (SHENZHEN BGI LIFE SCIENCE RES INSTITUTE, dated 2023)
Substitutions are numbered along the chain they refer to.

B1: R-30 (VHH)
VHH: QVQLQESGGGLVQSGGSLRLSCTASGGIIRLNSMGWYRQAPGKQREPVATIVSDVGTNYADSVKGRFTISRDNAKNTIYLQMNSLKFEDTAVYYCVADRAFVLRGEYEYWGQGTQVTVSS
notes: also called 第一株RBD纳米抗体R-30
B2: S1-28 (VHH)
VHH: B1 VHH with S14P, L85P
notes: also called 第二株RBD纳米抗体S1-28
B3: S1-24 (VHH)
VHH: B1 VHH with T23A, I28V, I29S, P41Q, P47L, S53N, K75A, I78V, Q81L, Y94N
notes: also called 第四株RBD纳米抗体S1-24
B4: S1-51 (VHH)
VHH: B1 VHH with T23A, I28V, I29S, P47L, V52I, K75A, I78V
notes: also called 第三株RBD纳米抗体S1-51

molecular target: T1, SARS-CoV-2 印度delta突变型S1抗原 (SARS-CoV-2 delta variant, UniProt P0DTC2 16-685); assay: SPR, Biacore T200, antigen coupled to CM5 chip, nanobody as analyte
T1 construct: domain: S1; also called delta突变体抗原; delta变异突变株

Row | Binder | Kd
1 | B1 | ~100 pM
2 | B2 | ~100 pM
3 | B3 | ~100 pM
4 | B4 | ~100 pM

molecular target: T2, SARS-CoV-2 南非beta突变型S1抗原 (SARS-CoV-2 beta variant, UniProt P0DTC2 16-685); assay: as above
T2 construct: domain: S1; also called beta突变体抗原; beta变异突变株

Row | Binder | Kd
5 | B1 | ~100 pM
6 | B2 | ~100 pM
7 | B3 | ~100 pM
8 | B4 | ~100 pM
